According to the supplement of paper PMC9732359:
± gives the uncertainty stated by the source.

Experiment: protein stability index of a GFP-peptide fusion (yeast GPS) (PSI 1-4); higher = more stable; sorted into four equal gates, so the index is relative within each strain
Conditions: pdr5∆
Procedure, shortened: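 The protein stability index of a peptide was calculated by multiplying its read frequency in each gate by that gate's number and adding the products. The peptides were tiled 17-residue stretches of yeast proteins, fused downstream of GFP on a Cherry-expressing plasmid and carried in yeast as a pooled library. Mid-log cultures in leucine-free medium were sorted into four equal gates by GFP/Cherry ratio, and each gate's plasmids were PCR-amplified and Illumina-sequenced.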

First: GKVVKNVLLLDSNGDFN [RRP46]
Second: GKYVIAGHVSGVITVHN [RPN14]
The protein stability index of the first is higher: 3.22 ± 0.058 for the first, 2.48 ± 0.092 for the second.

Going from GLCMLGTGKPEAIHDMF [RPN2] to GLDATKLYVSHIQVNQA [RPL17A], the protein stability index falls from 3.46 ± 0.29 to 2.99 ± 0.063.

Same assay, conditions: san1∆

Going from FQIIDTLLPGLQDEVMN [RPS2] to FQIVIEPLAIALSMGKS [ARP7], the protein stability index falls from 2.22 ± 0.091 to 1.52 ± 0.092.

Compared with FQMNCYAKEDAFSYPRM [RPN2], FQNSYKPALKVSKEGLY [YMR129W/POM152] is higher in protein stability index: 2.48 ± 0.077 for the first, 3.02 ± 0.082 for the second.

First: FQQIQYENKQLYFPDDY [POP1]
Second: FQSQQRRKDTSMVLFFV [RPB9]
The protein stability index of the first is higher: 2.78 ± 0.12 for the first, 1.62 ± 0.16 for the second.

First: FRAVGEGNAQLVAIFGG [FAS1]
Second: FRETTHSKRELDSGDDQ [BRR2]
The protein stability index of the first is lower: 1.51 ± 0.1 for the first, 2.51 ± 0.088 for the second.

FRSYMDQEKKYGMSITE [RPB2] and FSFGKPFFSSNTSSLQS [YIL149C/MLP2] are within error of each other in protein stability index: 2.89 ± 0.065 for the first, 2.86 ± 0.046 for the second.

FSFGQNNNNTNTQPSAS [YGR119C/NUP57] and FSFGTSQPNNTPSFSFG [YLR335W/NUP2] are within error of each other in protein stability index: 2.82 ± 0.06 for the first, 2.88 ± 0.053 for the second.

Going from FSGKGVHKLRHYLVNLT [GRR1] to FSKILPAALDGLMKSYK [ESC2], the protein stability index rises from 1.39 ± 0.07 to 2.73 ± 0.051.

FSMLQMAFEASAAAAGN [BRR2] and FSNKYLELCKLASNNLE [RRI2] are within error of each other in protein stability index: 1.76 ± 0.21 for the first, 2.02 ± 0.068 for the second.

Compared with FSNVNELQEKNVELLNC [YIL149C/MLP2], FSPVISQSLTSILVIVQ [SWI1] is lower in protein stability index: 3.06 ± 0.083 for the first, 1.33 ± 0.076 for the second.

FSSKNEWRKSAIANTLL [PRP8] and FTFGQSTSENKISEGSA [YOR098C/NUP1] are within error of each other in protein stability index: 2.94 ± 0.053 for the first, 2.86 ± 0.12 for the second.

First: FTGQGSQEQGMGMDLYK [FAS1]
Second: FTLTYDIIETFSSKRKT [YMR129W/POM152]
The protein stability index of the first is higher: 3.41 ± 0.1 for the first, 1.69 ± 0.077 for the second.

First: FTNIISRNKALELNLSV [YJL039C/NUP192]
Second: FTQLKKNIPKTRYNRDY [SNU114]
The protein stability index of the first is lower: 2.62 ± 0.12 for the first, 2.98 ± 0.04 for the second.

FTQQELQKQMGIGSLTD [RPC34] and FTSHTRLRQGAAKLRTL [RPL2A] are within error of each other in protein stability index: 2.33 ± 0.17 for the first, 2.1 ± 0.073 for the second.

First: FVIPILIKMSRSPPRPP [PRP28]
Second: FVTRKSRKRAKKMTKKA [PRP8]
The protein stability index of the first is lower: 2.01 ± 0.088 for the first, 2.61 ± 0.11 for the second.

Going from FVVGVDNVSSQQMHEVR [RPP0] to FVVKLDTVDRLIIKYQK [GAL11], the protein stability index falls from 3.07 ± 0.15 to 2.54 ± 0.054.

Going from FWFDKLVTKILPLKKNE [YCG1] to FWSLHSSTYYNLDYLFE [NUT1], the protein stability index falls from 3.1 ± 0.15 to 2 ± 0.063.

Compared with FYERLDKSTTQLRKEIQ [MED11], GAEDPKVLINDQLSTIS [SWI1] is higher in protein stability index: 2.47 ± 0.064 for the first, 3.32 ± 0.21 for the second.

First: GAEVDEARINELLSSLE [RPP2B]
Second: GAFDQLKQNAIRARIPF [SRP54]
The protein stability index of the first is higher: 3.22 ± 0.077 for the first, 2.9 ± 0.057 for the second.

First: GAKGSTLIVVPFNQGSK [FAS2]
Second: GAKNIEITVVKPDSDIV [PRE6]
The protein stability index of the first is lower: 2.18 ± 0.14 for the first, 2.57 ± 0.052 for the second.

GALQESVEAYLVSLFED [HHT1] and GAMGLLSSAGAKSTVET [RIP1] are within error of each other in protein stability index: 2.29 ± 0.12 for the first, 2.14 ± 0.18 for the second.

First: GANPRVLSTFTAEFGKI [RPN10]
Second: GAPGANARMPGMPNMPG [SRP54]
The protein stability index of the first is lower: 2.12 ± 0.2 for the first, 2.92 ± 0.12 for the second.

Compared with GAQIVSKQIFTHPKDTF [ARP9], GASGVDDFQNFFDPKPF [SWI1] is higher in protein stability index: 2.04 ± 0.067 for the first, 2.92 ± 0.092 for the second.

First: GASIIQVIFEIFEISLQ [YML103C/NUP188]
Second: GASNGDDSNGGNGEGLG [BRN1]
The protein stability index of the first is lower: 2.1 ± 0.065 for the first, 3.68 ± 0.16 for the second.

First: GATSKPAFSFGAKPEEK [YJL041W/NSP1]
Second: GATVFVNHLLLFAREIA [DPB4]
The protein stability index of the first is higher: 3.31 ± 0.074 for the first, 1.41 ± 0.087 for the second.

First: GCGNTQPTIRKDGLKLV [RPO21]
Second: GCIPGNRKRIVTLRKSL [RPL3]
The protein stability index of the first is higher: 2.3 ± 0.17 for the first, 1.6 ± 0.2 for the second.

First: GCLSVLYQSKGRYMEAL [SRP68]
Second: GCVDIDDALHAKKLPNG [DIS3]
The protein stability index of the first is lower: 2.76 ± 0.21 for the first, 3.14 ± 0.04 for the second.

Going from GDHNKLRSTIANLLQIN [YML103C/NUP188] to GDIKPEFSPRLHNIWSN [YML103C/NUP188], the protein stability index rises from 1.45 ± 0.13 to 3.32 ± 0.11.

GDIKVLDSNFNLQREID [RPN14] and GDVVLAAAYSHELPRYG [RPL5] are within error of each other in protein stability index: 2.93 ± 0.085 for the first, 2.99 ± 0.061 for the second.

First: GEGERFTVDKKIAERSL [SKP1]
Second: GEIIDISAFTQFLRLIF [ARP9]
The protein stability index of the first is higher: 3.36 ± 0.12 for the first, 2.59 ± 0.11 for the second.

First: GELEQAQAWINLGEYYA [RPN7]
Second: GELKRGNESVKPQFENH [MED11]
The protein stability index of the first is higher: 3.33 ± 0.1 for the first, 2.98 ± 0.11 for the second.

Going from GFALNSDIVFIHQNAGR [BRR2] to GFANSLTFILGQLLSVK [YML031W/NDC1], the protein stability index falls from 1.78 ± 0.2 to 1.2 ± 0.22.

GFIETTELLNIYDSEDP [RPN3] and GFTASVSNQENAGTDIV [MED1] are within error of each other in protein stability index: 2.85 ± 0.084 for the first, 2.64 ± 0.16 for the second.

Going from GFVIQDRETALDFIGRR [RPB2] to GGDGRDYKGAKLNVVGW [RRI1], the protein stability index falls from 3.34 ± 0.077 to 2.56 ± 0.12.

First: GGLNDPRLGSIDRNLKC [RPO21]
Second: GGQRSLIALSLIMALLQ [SMC2]
The protein stability index of the first is higher: 3.32 ± 0.094 for the first, 1.73 ± 0.099 for the second.

Compared with GGSAKPSLKFKPKAVAR [RPC53], GGSTTNNTTTTSTKPSF [YOR098C/NUP1] is higher in protein stability index: 2.44 ± 0.067 for the first, 2.8 ± 0.072 for the second.

First: GGVMANRKIARMRHSKR [YOR098C/NUP1]
Second: GHIVSLELTTGATYRGK [SMD3]
The protein stability index of the first is higher: 3.34 ± 0.09 for the first, 2.12 ± 0.085 for the second.

Going from GHLNGHTPTIASYLTPL [SSN2] to GHPMTKSVYETPKITAA [SEC65], the protein stability index falls from 2.62 ± 0.044 to 2.03 ± 0.24.

First: GHYQAFIRDELDENKWY [UBP6]
Second: GIDINTKIFNSVAEVFQ [YCG1]
The protein stability index of the first is lower: 1.53 ± 0.12 for the first, 2.39 ± 0.12 for the second.

Compared with GINQILGNEKNQASTSK [CDC53], GIRIISLTYKKISLRDI [RPN3] is lower in protein stability index: 3.11 ± 0.092 for the first, 1.29 ± 0.15 for the second.

Compared with GIRYIRLKQVFNRALDQ [NNF1], GISINNMMEHWDYLQLT [RPO31] is higher in protein stability index: 2.04 ± 0.036 for the first, 2.8 ± 0.14 for the second.

Compared with GISLVMEIVANAKESNY [MED1], GISSAYIKSATLYSVKS [SNU114] is lower in protein stability index: 2.28 ± 0.085 for the first, 1.67 ± 0.26 for the second.

Compared with GITGNLDRIPMHSYFIF [COB], GKDCKLQNLQRIIRKKI [RRI2] is higher in protein stability index: 2.39 ± 0.072 for the first, 3.14 ± 0.096 for the second.

Compared with GKDLSPAINYTKLKNAV [QCR2], GKDRIAINVFPEGYKAK [RPO31] is higher in protein stability index: 2.15 ± 0.094 for the first, 2.5 ± 0.07 for the second.

First: GKGRFQTPAEKHAFMGT [RPL3]
Second: GKGTGKTAMAELALLNH [BRR2]
The protein stability index of the first is lower: 2.97 ± 0.1 for the first, 3.45 ± 0.099 for the second.

Compared with GKLLLDEHNELMRQALA [RPO21], GKLLRNYTQNIDNLESY [SIR2] is higher in protein stability index: 2.02 ± 0.074 for the first, 3.09 ± 0.13 for the second.

Going from GKLVESEDSMNVQLRDV [SMD3] to GKSTADVKSSDSLKLNS [YJL041W/NSP1], the protein stability index falls from 3.33 ± 0.065 to 2.96 ± 0.17.

First: GKTTSCTKLAVYYSKRG [SRP54]
Second: GKVVKNVLLLDSNGDFN [RRP46]
The protein stability index of the first is lower: 2.18 ± 0.22 for the first, 3.29 ± 0.063 for the second.

Compared with GKYVIAGHVSGVITVHN [RPN14], GLCMLGTGKPEAIHDMF [RPN2] is higher in protein stability index: 2.48 ± 0.1 for the first, 3.19 ± 0.064 for the second.
